From the supplement of paper PMC5998384 come the findings set out here.

Data set [1] has as its system HeLa Kyoto. In words: solubility in G1/S (NP-40 vs SDS abundance) (log2 ratio); higher = more soluble. As to conditions: cell cycle stage: G1/S.
Data set [2] relates to HeLa Kyoto. In words: melting temperature (median over replicates), in situ; higher = more thermally stable.
Data set [3] deals with HeLa Kyoto. The data set is described as follows: solubility change mitosis vs G1/S (difference of NP-40 vs SDS log2 ratios) (log2 ratio difference); higher = more soluble in mitosis.
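Throughout, for melting temperature (median over replicates), in situ: HeLa Kyoto cells synchronized by double thymidine or nocodazole block, proteins quantified by TMT10plex mass spectrometry, three independent biological replicates.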
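Throughout, for solubility change mitosis vs G1/S (difference of NP-40 vs SDS log2 ratios): synchronized HeLa Kyoto cells (double thymidine block for G1/S, nocodazole release for mitosis), protein amounts in NP-40 versus SDS lysates quantified by mass spectrometry, three biological replicates.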
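Throughout, for solubility in G1/S (NP-40 vs SDS abundance): HeLa Kyoto cells arrested at G1/S by double thymidine block, proteins quantified by TMT10plex mass spectrometry in mild NP-40 versus SDS extracts, three biological replicates.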

In the case of “MSAGGSARKSTGRSSYYYRLLRRPRLQRQRSRSRSRTRPARESPQERPGSRRSLPGSLSEKSPSMEPSAATPFRVTGFLSRRLKGSIKRTKSQPKLDRNHSFRHILPGFRSAAAAAADNERSHLMPRLKESRSHESLLSPSSAVEALDLSMEEEVVIKPVHSSILGQDYCFEVTTSSGSKCFSCRSAAERDKWMENLRRAVHPNKDNSRRVEHILKLWVIEAKDLPAKKKYLCELCLDDVLYARTTGKLKTDNVFWGEHFEFHNLPPLRTVTVHLYRETDKKKKKERNSYLGLVSLPAASVAGRQFVEKWYPVVTPNPKGGKGPGPMIRIKARYQTITILPMEMYKEFAEHITNHYLGLCAALEPILSAKTKEEMASALVHILQSTGKVKDFLTDLMMSEVDRCGDNEHLIFRENTLATKAIEEYLKLVGQKYLQDALGEFIKALYESDENCEVDPSKCSAADLPEHQGNLKMCCELAFCKIINSYCVFPRELKEVFASWRQECSSRGRPDISERLISASLFLRFLCPAIMSPSLFNLLQEYPDDRTARTLTLIAKVTQNLANFAKFGSKEEYMSFMNQFLEHEWTNMQRFLLEISNPETLSNTAGFEGYIDLGRELSSLHSLLWEAVSQLEQSIVSKLGPLPRILRDVHTALSTPGSGQLPGTNDLASTPGSGSSSISAGLQKMVIENDLSGLIDFTRLPSPTPENKDLFFVTRSSGVQPSPARSSSYSEANEPDLQMANGGKSLSMVDLQDARTLDGEAGSPAGPDVLPTDGQAAAAQLVAGWPARATPVNLAGLATVRRAGQTPTTPGTSEGAPGRPQLLAPLSFQNPVYQMAAGLPLSPRGLGDSGSEGHSSLSSHSNSEELAAAAKLGSFSTAAEELARRPGELARRQMSLTEKGGQPTVPRQNSAGPQRRIDQPPPPPPPPPPAPRGRTPPNLLSTLQYPRPSSGTLASASPDWVGPSTRLRQQSSSSKGDSPELKPRAVHKQGPSPVSPNALDRTAAWLLTMNAQLLEDEGLGPDPPHRDRLRSKDELSQAEKDLAVLQDKLRISTKKLEEYETLFKCQEETTQKLVLEYQARLEEGEERLRRQQEDKDIQMKGIISRLMSVEEELKKDHAEMQAAVDSKQKIIDAQEKRIASLDAANARLMSALTQLKERYSMQARNGISPTNPTKLQITENGEFRNSSNC [DAB2IP]”, in the data set with HeLa Kyoto [1], the “solubility in G1/S (log2)” value came to 0.117. The melting temperature with HeLa Kyoto [2] (cell cycle stage: G1/S) is 49.5 °C; in the data set with HeLa Kyoto [2] (cell cycle stage: mitosis), 51 °C. For the same sequence, the “solubility change mitosis (log2)” value in the data set with HeLa Kyoto [3] came out at 0.0598.

Consider “MSAHSMLCERIAIAKELIKRAESLSRSRKGGIEGGAKLCSKLKAELKFLQKVEAGKVAIKESHLQSTNLTHLRAIVESAENLEEVVSVLHVFGYTDTLGEKQTLVVDVVANGGHTWVKAIGRKAEALHNIWLGRGQYGDKSIIEQAEDFLQASHQQPVQYSNPHIIFAFYNSVSSPMAEKLKEMGISVRGDIVAVNALLDHPEELQPSESESDDEGPELLQVTRVDRENILASVAFPTEIKVDVCKRVNLDITTLITYVSALSYGGCHFIFKEKVLTEQAEQERKEQVLPQLEAFMKDKELFACESAVKDFQSILDTLGGPGERERATVLIKRINVVPDQPSERALRLVASSKINSRSLTIFGTGDTLKAITMTANSGFVRAANNQGVKFSVFIHQPRALTESKEALATPLPKDYTTDSEH [C7ORF25]”, for which, in the data set with HeLa Kyoto [1], the “solubility in G1/S (log2)” value was 0.0643. The melting temperature in the data set on HeLa Kyoto [2] (cell cycle stage: G1/S) was 50.1 °C; in the data set with HeLa Kyoto [2] (cell cycle stage: mitosis), 50 °C. In addition, the “solubility change mitosis (log2)” value in the data set with HeLa Kyoto [3] was found to be 0.0164.
